Results on six molecules are retold here after paper PMC12218921, “An adaptive peptide-binding site in ubiquitin receptor hRpn13 revealed by structural studies” (Nature Communications, 2025).

B2: hRpn13_ΔMTT (domain or fragment, human)
chain: GSSGALFPSLVPGSRGASNKYLVEFRAGKMSLKGTTVTPDKRKGLVYIQQTDDSLIHFCWKDRTSGNVEDDLIIFPDDCEFKRVPQCPSGRVYVLKFKAGSKRLFFWMQEPKTDQDEEHCRKVNEYLNNPPMPGALGASGSSGHELSAL
notes: hRpn13 (ADRM1), human, hRpn13 (1-150) without M1-T3; 15N-labelled for NMR; also called hRpn13 Pru variant with ENT M1 – T3, aG, and bP deleted; source: E. coli BL21 (DE3), purified (glutathione sepharose, thrombin cleavage, Superdex 75); not shown: GST, N-terminal, cleaved
B4: TAMRA-labeled hRpn2 (940–953) (peptide)
peptide: QEPEPPEPFEYIDD
modifications: also: TAMRA attached, position not given here
notes: also called TAMRA-hRpn2; source: bought: New England Peptide

The target in data set [1] is B2. In words: fluorescence polarisation; competition: unlabeled peptide at various concentrations preincubated with 80 nM hRpn13_ΔMTT, then 10 nM TAMRA-hRpn2 (940–953) added; PBS with 1 mM TCEP, room temperature; [Inhibitor] vs response (three parameters) fit; estimated EC50. Conditions: both partners purified.
For data set [2], the target named is T1, K48-diUb^D77 (human, UniProt P0CG48 1-76; P0CG48 1-76, K48R, G76 joined by an isopeptide bond to K48 of the other ubiquitin | K48 joined by an isopeptide bond to G76 of Ub-K48R).
T1 construct: Ub-K48R (distal, by the methods): ubiquitin, human; Ub-D77 (proximal, by the methods): ubiquitin, human; additional aspartate at position 77 (Ub-D77); Two ubiquitins joined covalently K48-G76; The results call the extended moiety distal, the methods call it proximal; also called K48-linked diubiquitin; source: made enzymatically (E1 from R&D Systems, E2-25K) from ubiquitin proteins expressed in …
In words: NMR titration; 1H-15N HSQC of 0.1 mM 15N-labeled hRpn13_ΔMTT alone and with unlabeled ligand (peptides at varying molar ratios up to 20-fold excess; hRpn2 (940-953) or ubiquitin equimolar, alone or together with 20-fold EDGEGEE; K48-diUb at 4:1, 2:1 and 1:1 hRpn13 to diUb); NMR buffer (20 mM sodium phosphate pH 6.5, 50 mM NaCl, 1 mM TCEP, 10% D2O), 25 °C, 600 MHz. Conditions: both partners purified.

Data set [3] addresses T2, K48-diUb^ENT (human, UniProt P0CG48 1-76; P0CG48 1-76, K48R, G76 joined by an isopeptide bond to K48 of the other ubiquitin | K48 joined by an isopeptide bond to G76 of Ub-K48R).
T2 construct: Ub-K48R (distal, by the methods): ubiquitin, human; Ub-ENT (proximal, by the methods): ubiquitin, human; 6-residue linker added to the ubiquitin C-terminal end; Two ubiquitins joined covalently K48-G76; The results call the extended moiety distal, the methods call it proximal; also called K48-linked diubiquitin with Ub-ENT; source: made enzymatically (E1 from R&D Systems, E2-25K) from ubiquitin …
The description is as above. Conditions: both partners purified.

Data set [4] has as its target T3, K48-diUb^EDGEGEE (human, UniProt P0CG48 1-76; P0CG48 1-76, K48R, G76 joined by an isopeptide bond to K48 of the other ubiquitin | K48 joined by an isopeptide bond to G76 of Ub-K48R).
T3 construct: Ub-K48R (distal, by the methods): ubiquitin, human; Ub-EDGEGEE (proximal, by the methods): ubiquitin, human; 6-residue linker added to the ubiquitin C-terminal end; Two ubiquitins joined covalently K48-G76; The results call the extended moiety distal, the methods call it proximal; also called K48-linked diubiquitin with Ub-EDGEGEE; source: made enzymatically (E1 from R&D Systems, E2-25K) from …
The description is as above. Conditions: both partners purified.

In data set [5] the target is T4, ubiquitin (human, UniProt P0CG48 1-76).
T4 construct: ubiquitin, human, the 76-residue cut product of the polyubiquitin precursor; source: E. coli Rosetta 2(DE3), untagged, purified (cation exchange, SEC)
Described as above. Conditions: both partners purified.

For data set [6], the target named is B4. In words: fluorescence polarisation; hRpn13_ΔMTT titrated against TAMRA-hRpn2 (940–953); PBS with 1 mM TCEP, room temperature; [Agonist] vs response (three parameters) fit. Conditions: both partners purified. (In general: Polarisation of emitted light reports the rotation of a fluorescent probe.)
Data set [7] deals with the molecule itself. In words: crystal structure; hRpn13 (1–150) at 560 μM in 20 mM HEPES pH 7.5, 100 mM NaCl, 1 mM TCEP; microbatch-under-oil at 4 °C with 0.1 M sodium acetate pH 4.6, 22% PEG3350; one molecule per asymmetric unit, ENT at the interface of Pru molecules of the lattice; 1.85 Å.

No end group written: not given here.

B1: hRpn2 (940–953) (peptide)
peptide: QEPEPPEPFEYIDD
notes: source: synthetic peptide (GenScript Biotech; for the fluorescence polarization assay bought: New England Peptide)
Regarding B1, the EC50 in data set [1] is 0.32 ± 0.02 µM.

With B2, the binding result in data set [2], in data set [3], in data set [4] and in data set [5] was “binds” in each case. In addition, the EC50 in data set [6] turned out to be 0.043 ± 0.007 µM.

B3: EDGEGEE peptide (peptide)
peptide: EDGEGEE
notes: acidic peptide chosen by the authors; also called acidic peptide; source: synthetic peptide (GenScript)
As to B3, the EC50 in data set [1] is 637 ± 51 µM.

With PPEPFEYIDD (source: bought: New England Peptide) [hRpn2 (944–953)], the EC50 in data set [1] is 87 ± 6 µM.

With B4, the binding result in data set [1] is reported as “binds”.

B5: hRpn13 Pru (1–150) (domain or fragment, human)
chain: GPGSMTTSGALFPSLVPGSRGASNKYLVEFRAGKMSLKGTTVTPDKRKGLVYIQQTDDSLIHFCWKDRTSGNVEDDLIIFPDDCEFKRVPQCPSGRVYVLKFKAGSKRLFFWMQEPKTDQDEEHCRKVNEYLNNPPMPGALGASGSSGHELSAL
notes: four non-native residues (aG-bP-cG-dS) left at the N-terminus after PreScission cleavage of the purification tag; hRpn13 (ADRM1), human, residues 1-150 holding the Pru domain; 15N-labelled (M9 medium) for the NMR experiments, unlabelled (LB) for crystallography; S4-N20 are not seen in the electron density; also called hRpn13 (1–150); Pru-A; source: E. coli BL21(DE3) pLysS, purified (Talon resin, …)
For the molecule B5, the binding result in data set [7] is listed as “binds”.

Usually EC50 stands for the concentration at which the effect is half-maximal.
